Measurements as given in IntAct's records for PubMed 18325333.

Target: cdk5_mouse Cdk5 (UniProt P49615)

Sequence of Cyclin-dependent kinase 5 activator 1 (Mus musculus), P61809 D288A (P61809 whole entry D288A): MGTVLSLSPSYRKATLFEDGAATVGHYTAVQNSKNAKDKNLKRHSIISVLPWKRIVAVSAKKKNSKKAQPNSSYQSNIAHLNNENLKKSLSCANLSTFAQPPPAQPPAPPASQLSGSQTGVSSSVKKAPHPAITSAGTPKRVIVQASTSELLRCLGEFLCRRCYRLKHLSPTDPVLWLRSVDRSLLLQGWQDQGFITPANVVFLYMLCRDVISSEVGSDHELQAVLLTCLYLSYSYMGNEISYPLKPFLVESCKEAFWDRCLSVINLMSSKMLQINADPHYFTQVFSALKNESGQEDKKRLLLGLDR
Sequence of Cyclin-dependent kinase 5 activator 1 (Mus musculus), P61809 L289A (P61809 whole entry L289A): as the sequence (P61809 whole entry D288A) above, with A288D, L289A counted along it

effect of a mutation on the interaction	Substance
disrupting interaction	Cyclin-dependent kinase 5 activator 1 (Mus musculus), P61809 D288A
disrupting interaction	Cyclin-dependent kinase 5 activator 1 (Mus musculus), P61809 L289A
